From patent US20090226525 come the findings set out here.

What is called Kd is the constant that tells how readily two partners part at equilibrium.

Test in all cases: EMSA
Background: A gel shift assay detects complexes by their altered migration in electrophoresis.

In data set [1] the target is HBV core protein K11 mutant (truncated core, C-terminal 11-lysine tail, E77C) (Hepatitis B virus) (UniProt P03149). The note with it: phosphate (P) at end of the sequence; 20 mM NaHCO3 pH 9.5, room temperature, agarose gel.
The target in data set [2] is HBV core protein K7 mutant (truncated core, C-terminal 7-lysine tail, E77C) (Hepatitis B virus) (UniProt P03149). The note with it: phosphate (P) at end of the sequence; 20 mM NaHCO3 pH 9.5, room temperature, agarose gel.
For data set [3], the target named is HBV core protein K9 mutant (truncated core, C-terminal 9-lysine tail, E77C) (Hepatitis B virus) (UniProt P03149). The note with it: phosphate (P) at end of the sequence; 20 mM Tris pH 7.7 (p269 states 10 mM Tris), room temperature, agarose gel.

Regarding “GGAAAGACUGUUCCAAAAAUUUUCCUUUCUGACAAGGUUUUU / AAAAACCUUGUCAGAAAGGAAAAUUUUUGGAACAGUCUUUCC [siGLO Cyclophilin B siRNA]”, the Kd in data set [1] was determined as 69 nM; in data set [2], 370 nM; in data set [3] it was 115 nM.
